The values that follow come from patent US20140087995A1 (published 2014).

Numbered stars: 1 amine (or outer) side, 2 acyl side, 3 side chain; on linkers, the order of the positions; unused ones are H or OH. Bridge positions count the residues as written; N and C are the ends. Side chains are listed from the residue outwards. Ends that are not written are not given here. * marks the point of attachment. C20 diacid = O=C(O)CCCCCCCCCCCCCCCCCCC(=O)*; γGlu = O=C(O)[C@H](CCC(=O)[*:2])N[*:1]; AEEA = NCCOCCOCC(=O)O

What is called IC50 is the concentration that inhibits the measured activity by half.

The labels stand for the following.
T1: human calcitonin receptor (human, UniProt P30988 25-474)
T1 construct: whole, on cells; also called hCTR; hCT
T1 sequence (looked up): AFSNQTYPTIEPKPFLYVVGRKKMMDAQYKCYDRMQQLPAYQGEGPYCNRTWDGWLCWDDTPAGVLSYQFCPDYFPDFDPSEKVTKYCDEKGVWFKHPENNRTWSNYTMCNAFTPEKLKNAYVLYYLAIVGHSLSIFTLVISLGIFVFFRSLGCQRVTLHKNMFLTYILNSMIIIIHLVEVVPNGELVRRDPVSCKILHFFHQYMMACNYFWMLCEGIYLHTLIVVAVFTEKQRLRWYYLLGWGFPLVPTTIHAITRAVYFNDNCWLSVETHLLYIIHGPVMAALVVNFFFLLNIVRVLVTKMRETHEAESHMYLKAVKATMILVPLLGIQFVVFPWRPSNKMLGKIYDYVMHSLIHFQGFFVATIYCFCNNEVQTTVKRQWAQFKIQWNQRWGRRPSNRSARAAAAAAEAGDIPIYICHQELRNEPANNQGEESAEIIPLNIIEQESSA

T2: rat amylin receptor (rat calcitonin receptor + rat RAMP 3) (rat, UniProt P32214 25-516; Q9JJ73 23-147)
T2 construct: whole, on cells; also called rAmylin-R; rat amylin 3(a) receptor
T2 sequence (looked up) 1: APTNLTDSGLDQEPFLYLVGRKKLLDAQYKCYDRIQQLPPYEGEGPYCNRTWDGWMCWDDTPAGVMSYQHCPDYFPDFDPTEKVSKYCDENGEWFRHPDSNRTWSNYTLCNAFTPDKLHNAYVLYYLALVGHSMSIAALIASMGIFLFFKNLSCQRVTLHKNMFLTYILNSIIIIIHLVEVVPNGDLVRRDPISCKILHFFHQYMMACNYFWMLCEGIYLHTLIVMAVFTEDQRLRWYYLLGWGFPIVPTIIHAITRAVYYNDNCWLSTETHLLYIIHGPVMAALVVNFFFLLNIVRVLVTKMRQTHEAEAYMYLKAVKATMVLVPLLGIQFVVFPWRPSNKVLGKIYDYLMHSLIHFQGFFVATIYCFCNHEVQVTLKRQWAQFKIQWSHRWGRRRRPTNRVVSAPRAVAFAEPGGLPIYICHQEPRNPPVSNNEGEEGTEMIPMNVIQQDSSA
T2 sequence (looked up) 2: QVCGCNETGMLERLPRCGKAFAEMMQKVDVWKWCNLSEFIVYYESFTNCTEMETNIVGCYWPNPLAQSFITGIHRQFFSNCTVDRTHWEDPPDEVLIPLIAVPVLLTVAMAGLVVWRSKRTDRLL

T3: rat calcitonin receptor (rat, UniProt P32214 25-516)
T3 construct: whole, on cells; also called rCTR; rat calcitonin (a) receptor
T3 sequence (looked up): T2 sequence (looked up) 1

B1: N^ε1-[2-[2-[2-[[(4S)-4-carboxy-4-(19-carboxynonadecanoylamino)butanoyl]amino]ethoxy]ethoxy]acetyl]-[Arg17,Pro21,Pro27,Pro29,Pro34]-h-amylin (peptide)
peptide: K([AEEA-γGlu-C20 diacid])CNTATCATQRLANFLRHSSPNFGAIPSPTNVGPNTY-NH2
modifications: disulfide 2-7; N-terminus assumed
SMILES: CC[C@H](C)[C@H](NC(=O)[C@H](C)NC(=O)CNC(=O)[C@H](Cc1ccccc1)NC(=O)[C@H](CC(N)=O)NC(=O)[C@@H]1CCCN1C(=O)[C@H](CO)NC(=O)[C@H](CO)NC(=O)[C@H](Cc1c[nH]cn1)NC(=O)[C@H](CCCNC(=N)N)NC(=O)[C@H](CC(C)C)NC(=O)[C@H](Cc1ccccc1)NC(=O)[C@H](CC(N)=O)NC(=O)[C@H](C)NC(=O)[C@H](CC(C)C)NC(=O)[C@H](CCCNC(=N)N)NC(=O)[C@H](CCC(N)=O)NC(=O)[C@@H](NC(=O)[C@H](C)NC(=O)[C@@H]1CSSC[C@H](NC(=O)[C@@H](N)CCCCNC(=O)COCCOCCNC(=O)CC[C@H](NC(=O)CCCCCCCCCCCCCCCCCCC(=O)O)C(=O)O)C(=O)N[C@@H](CC(N)=O)C(=O)N[C@@H]([C@@H](C)O)C(=O)N[C@@H](C)C(=O)N[C@@H]([C@@H](C)O)C(=O)N1)[C@@H](C)O)C(=O)N1CCC[C@H]1C(=O)N[C@@H](CO)C(=O)N1CCC[C@H]1C(=O)N[C@H](C(=O)N[C@@H](CC(N)=O)C(=O)N[C@H](C(=O)NCC(=O)N1CCC[C@H]1C(=O)N[C@@H](CC(N)=O)C(=O)N[C@H](C(=O)N[C@@H](Cc1ccc(O)cc1)C(N)=O)[C@@H](C)O)C(C)C)[C@@H](C)O
notes: synthetic analogue of human amylin; also called compound 56
B2: N^ε1-[2-[2-[2-[[(4S)-4-carboxy-4-(19-carboxynonadecanoylamino)butanoyl]amino]ethoxy]ethoxy]acetyl]-[Arg17,Pro21,Pro27,Pro34,His35]-h-amylin (peptide)
peptide: K([AEEA-γGlu-C20 diacid])CNTATCATQRLANFLRHSSPNFGAIPSSTNVGPHTY-NH2
modifications: disulfide 2-7; N-terminus assumed
SMILES: CC[C@H](C)[C@H](NC(=O)[C@H](C)NC(=O)CNC(=O)[C@H](Cc1ccccc1)NC(=O)[C@H](CC(N)=O)NC(=O)[C@@H]1CCCN1C(=O)[C@H](CO)NC(=O)[C@H](CO)NC(=O)[C@H](Cc1c[nH]cn1)NC(=O)[C@H](CCCNC(=N)N)NC(=O)[C@H](CC(C)C)NC(=O)[C@H](Cc1ccccc1)NC(=O)[C@H](CC(N)=O)NC(=O)[C@H](C)NC(=O)[C@H](CC(C)C)NC(=O)[C@H](CCCNC(=N)N)NC(=O)[C@H](CCC(N)=O)NC(=O)[C@@H](NC(=O)[C@H](C)NC(=O)[C@@H]1CSSC[C@H](NC(=O)[C@@H](N)CCCCNC(=O)COCCOCCNC(=O)CC[C@H](NC(=O)CCCCCCCCCCCCCCCCCCC(=O)O)C(=O)O)C(=O)N[C@@H](CC(N)=O)C(=O)N[C@@H]([C@@H](C)O)C(=O)N[C@@H](C)C(=O)N[C@@H]([C@@H](C)O)C(=O)N1)[C@@H](C)O)C(=O)N1CCC[C@H]1C(=O)N[C@@H](CO)C(=O)N[C@@H](CO)C(=O)N[C@H](C(=O)N[C@@H](CC(N)=O)C(=O)N[C@H](C(=O)NCC(=O)N1CCC[C@H]1C(=O)N[C@@H](Cc1c[nH]cn1)C(=O)N[C@H](C(=O)N[C@@H](Cc1ccc(O)cc1)C(N)=O)[C@@H](C)O)C(C)C)[C@@H](C)O
notes: synthetic analogue of human amylin; also called compound 58
B3: N^ε1-[2-[2-[2-[[(4S)-4-carboxy-4-(19-carboxynonadecanoylamino)butanoyl]amino]ethoxy]ethoxy]acetyl]-[Arg17,Pro21,Pro27,Pro34]-h-amylin (peptide)
peptide: K([AEEA-γGlu-C20 diacid])CNTATCATQRLANFLRHSSPNFGAIPSSTNVGPNTY-NH2
modifications: disulfide 2-7; N-terminus assumed
SMILES: CC[C@H](C)[C@H](NC(=O)[C@H](C)NC(=O)CNC(=O)[C@H](Cc1ccccc1)NC(=O)[C@H](CC(N)=O)NC(=O)[C@@H]1CCCN1C(=O)[C@H](CO)NC(=O)[C@H](CO)NC(=O)[C@H](Cc1c[nH]cn1)NC(=O)[C@H](CCCNC(=N)N)NC(=O)[C@H](CC(C)C)NC(=O)[C@H](Cc1ccccc1)NC(=O)[C@H](CC(N)=O)NC(=O)[C@H](C)NC(=O)[C@H](CC(C)C)NC(=O)[C@H](CCCNC(=N)N)NC(=O)[C@H](CCC(N)=O)NC(=O)[C@@H](NC(=O)[C@H](C)NC(=O)[C@@H]1CSSC[C@H](NC(=O)[C@@H](N)CCCCNC(=O)COCCOCCNC(=O)CC[C@H](NC(=O)CCCCCCCCCCCCCCCCCCC(=O)O)C(=O)O)C(=O)N[C@@H](CC(N)=O)C(=O)N[C@@H]([C@@H](C)O)C(=O)N[C@@H](C)C(=O)N[C@@H]([C@@H](C)O)C(=O)N1)[C@@H](C)O)C(=O)N1CCC[C@H]1C(=O)N[C@@H](CO)C(=O)N[C@@H](CO)C(=O)N[C@H](C(=O)N[C@@H](CC(N)=O)C(=O)N[C@H](C(=O)NCC(=O)N1CCC[C@H]1C(=O)N[C@@H](CC(N)=O)C(=O)N[C@H](C(=O)N[C@@H](Cc1ccc(O)cc1)C(N)=O)[C@@H](C)O)C(C)C)[C@@H](C)O
notes: synthetic analogue of human amylin; also called compound 50
B4: N^ε1-[2-[2-[2-[[(4S)-4-carboxy-4-(19-carboxynonadecanoylamino)butanoyl]amino]ethoxy]ethoxy]acetyl]-[Arg17,Pro21,Pro27,Pro31,His35]-h-amylin (peptide)
peptide: K([AEEA-γGlu-C20 diacid])CNTATCATQRLANFLRHSSPNFGAIPSSTPVGSHTY-NH2
modifications: disulfide 2-7; N-terminus assumed
SMILES: CC[C@H](C)[C@H](NC(=O)[C@H](C)NC(=O)CNC(=O)[C@H](Cc1ccccc1)NC(=O)[C@H](CC(N)=O)NC(=O)[C@@H]1CCCN1C(=O)[C@H](CO)NC(=O)[C@H](CO)NC(=O)[C@H](Cc1c[nH]cn1)NC(=O)[C@H](CCCNC(=N)N)NC(=O)[C@H](CC(C)C)NC(=O)[C@H](Cc1ccccc1)NC(=O)[C@H](CC(N)=O)NC(=O)[C@H](C)NC(=O)[C@H](CC(C)C)NC(=O)[C@H](CCCNC(=N)N)NC(=O)[C@H](CCC(N)=O)NC(=O)[C@@H](NC(=O)[C@H](C)NC(=O)[C@@H]1CSSC[C@H](NC(=O)[C@@H](N)CCCCNC(=O)COCCOCCNC(=O)CC[C@H](NC(=O)CCCCCCCCCCCCCCCCCCC(=O)O)C(=O)O)C(=O)N[C@@H](CC(N)=O)C(=O)N[C@@H]([C@@H](C)O)C(=O)N[C@@H](C)C(=O)N[C@@H]([C@@H](C)O)C(=O)N1)[C@@H](C)O)C(=O)N1CCC[C@H]1C(=O)N[C@@H](CO)C(=O)N[C@@H](CO)C(=O)N[C@H](C(=O)N1CCC[C@H]1C(=O)N[C@H](C(=O)NCC(=O)N[C@@H](CO)C(=O)N[C@@H](Cc1c[nH]cn1)C(=O)N[C@H](C(=O)N[C@@H](Cc1ccc(O)cc1)C(N)=O)[C@@H](C)O)C(C)C)[C@@H](C)O
notes: synthetic analogue of human amylin; also called compound 57

The target of one experiment is T1, human calcitonin receptor. In words: ratio of binding IC50s: human calcitonin receptor over human amylin receptor (reference). The protocol:
The resulting pellet was resuspended, homogenized and centrifuged (20.000 rpm, 15 min) in a buffer containing 20 mM Na-HEPES and 0.1 mM EDTA (pH 7.4, buffer 2). The resulting pellet was resuspended in buffer 2 and protein concentration was measured (BCA protein Assay, Pierce). The homogenate was kept cold during the whole procedure. The membranes were kept at −80° C. until use. The assay was performed in a 384 well Optiplate (PerkinElmer) in a total volume of 40 ul. Membranes were mixed with SPA beads. Final concentration of membranes 35 ng/μL final and SPA beads was 0.05 mg/well. Test-compounds were dissolved in DMSO and further diluted in assay buffer (50 mM Hepes, pH 7.4, 1 mM CaCl2, 5 mM MgCl₂, 0.1% OA and 0.02% Tween20). […] The final mixture was incubated with shaking at 400 rpm for 120 min at 25° C. prior to centrifugation (1500 rpm, 10 min). Samples were analyzed on TopCounter™ (Packard). The IC₅₀ was calculated using (one site binding competition analysis) GraphPad Prism5 as a measure of receptor affinity.
Membranes were prepared in the following way; the cells were rinsed with PBS and incubated with Versene for approximately 5 min before harvesting. The cells were flushed with PBS and the cell-suspension was centrifuged for 5 min at 1000 rpm. Cells were homogenized (Ultrathurrax) in a buffer containing 20 mM Na-HEPES and 10 mM EDTA (pH 7.4) and centrifuged at 20.000 rpm for 15 min. The resulting pellet was resuspended, homogenized and centrifuged (20.000 rpm, 15 min) in a buffer containing 20 mM Na-HEPES and 0.1 mM EDTA (pH 7.4, buffer 2). The resulting pellet was resuspended in buffer 2 and protein concentration was measured (BCA protein Assay, Pierce). The homogenate was kept cold during the whole procedure. The membranes were kept at −80° C. until use. Assay was performed in a 384 well Optiplate (PerkinElmer) in a total volume of 40 ul. Membranes were mixed with SPA beads.
As to B1, the “Ratio hCT/hAmylin binding” value stood at 42.6.
B2: the “Ratio hCT/hAmylin binding” value turned out to be 109.
For the molecule B3, the “Ratio hCT/hAmylin binding” value stood at 36.
Same read-out and setting: for B4 the value was 133.

Another experiment addresses T2, rat amylin receptor (rat calcitonin …). In words: SPA competition with 125I-rat amylin, membranes of BHK cells with rat calcitonin receptor + rat RAMP3 (Assay VI).
For B1, the IC50 turned out to be 0.04 nM.
Same read-out and setting: the figure for B2 is 0.135 nM; for B3 it is 0.069 nM.
B4: the IC50 was 0.181 nM.

The target in the next experiment is T3, rat calcitonin receptor. In words: SPA competition with 125I-calcitonin, membranes of BHK cells with rat calcitonin receptor (Assay VIII).
Consider B1, for which the IC50 was 5.26 nM.
As to B2, the IC50 is 10.3 nM.
On to B3, for which the IC50 was determined as 5.63 nM.
Take B4: the IC50 amounted to 24.4 nM.

The target in a further experiment is T3, rat calcitonin receptor. Nature of the experiment: ratio of binding IC50s: rat calcitonin receptor over rat amylin receptor (reference).
As for B1, the “Ratio rCT/rAmylin binding” value is 131.
On to B2, for which the “Ratio rCT/rAmylin binding” value turned out to be 76.6.
Consider B3, for which the “Ratio rCT/rAmylin binding” value stood at 81.7.
As to B4, the “Ratio rCT/rAmylin binding” value turned out to be 135.
